The results in this text go back to US20080044422A1 (Janssen / Centocor, published 2008).

This data set deals with the molecule itself. Put plainly: SELDI mass spectrometry of the purified protein alone, non-reduced sample (self-association). As to the method: Recombinantly expressed proteins were analyzed by SDS-PAGE, anti-myc western blot, MALDI-MS, and SEC HPLC. In addition, O-linked glycosylation was analyzed by first treating the proteins with O-glycosidase with and without sialidase. The released O-glycans were labeled with anthranilic acid and analyzed by HPLC. The truncated CNGH0010.2 protein containing exons 1-5, 8, 9, 12, and 13 (SEQ ID NO:41) is predicted to be 37.5 kDa. […] In addition, it appears as if the molecule has a propensity to multimerize, as non-reduced analysis by SDS-PAGE, SELDI-MS (FIG. 5), and SEC-HPLC (FIG. 6), all indicate that dimeric and trimeric forms of the truncated CNGH0010.2 molecule exist in solution.

B1: truncated CNGH0010.2 protein containing exons 1-5, 8, 9, 12, and 13 (other)
chain: GPLQSGEESTGTNIGEALGHGLGDALSEGVGKAIGKEAGGAAGSKVSEALGQGTREAVGTGVRQVPGFGAADALGNRVGEAAHALGNTGHEIGRQAEDVIRHGADAVRGSWQGVPGHNGAWETSGGHGIFGSQGGLGGQGQGNPGGLGTPWVHGYPGNSAGSFGMNPQGAPWGQGGNGGPPNFGTNTQGAVAQPGYGSVRASNQNEGCTNPPPSGSGGGSSNSGGGSGSQSGSSGSGSNGDNNNGSSSGGSSSGSSSGGSSGGSSGGSSGNSGGSRGDSGSESSWGSSTGSSSGNHGGSGGGDGHKPGCEKPGNEARGSGESGIQGQGSSWGSGGGDAVGGVNTVNSETS
modifications: O-linked oligosaccharides (sites not given)
notes: The signal peptide (probably residues 1-21, same exon 1) is cleaved in the secreted protein; also called CNGH0010 (exons 1-13); His tagged CNGH0010.2 fusion protein; not shown: C-terminal hexa-His (myc-His vector) tag
Consider B1, for which the binding result is given as “binds”.
